The subject of test [1] is DRG neuronal explant. As to the kind of experiment: vincristine-induced axonal degeneration in DRG neuronal explants. The test is classed as cell-based, mouse. The settings on record: 0.5 μM vincristine for up to 9 d, lentiviral expression. As for the experimental part:
(§1) To identify the mechanism of delayed axonal degeneration mediated by the Wld^s protein, we employed an in-vitro Wallerian degeneration model. Primary DRG explant neurons were infected with lentivirus expressing the appropriate proteins, and axons were injured by either removal of the neuronal cell body (transection) or growth in vincristine (toxic).
Quantitative analysis of axonal degeneration was performed as previously described (Zhai, et al., Neuron 39:217-25, 2003). Briefly, the cultures were examined using phase contrast microscopy at the indicated times. Axons with a fragmented, non-refractile appearance were designated as “degenerated.” At each time point, at least 200 singly distinguishable axons were blindly scored from several randomly taken images of each culture. […] For calculations of neurite-covered area, digitally captured images from quadruplicate samples of two independent experiments were analyzed using analysis 3.1 software (Soft Imaging System, Lakewood, Colo.).
In addition to mechanical transection, axonal protection in wld^s mice is also observed against other damaging agents such as ischemia and toxins (Coleman, et al., Trends Neurosci 25:532-37, 2002; Gillingwater, et al., J Cereb Blood Flow Metab 24:62-66, 2004). […] FIG. 2C illustrates protein expression in lentivirus-infected cells detected by immunoblot analysis using antibodies to the 6×His tag. […]

Test [2] concerns DRG neurons. Nature of the test: overall cellular NAD levels in DRG neurons by microscale enzymatic assays. The test is classed as cell-based. The settings on record: NMNAT1 expressing vs wild type DRG neurons. The text has this: Similarly, most enzymes that make up the NAD salvage pathway in yeast are also compartmentalized in the nucleus. […] Furthermore, levels of tissue NAD in the brains of wild type and wld^s mice are similar despite the increased levels of NMNAT activity in wld^s mice (Mack, et al., Nat Neurosci, 4:1199-206, 2001).

In test [3] the test system is DRG explant neurons. Nature of the test: in vitro Wallerian degeneration assay: DRG explant cultures, axonal transection by removal of neuronal cell bodies. In kind it is cell-based, mouse. The settings on record: lentivirus-infected DRG neurons. As to the method: as §1
Mouse DRG explants from E12.5 embryos were cultured in the presence of 1 nM nerve growth factor. Non-neuronal cells were removed from the cultures by adding 5-fluorouracil to the culture medium. Transection of neurites was performed at 10-20 DIV using an 18-gauge needle to remove the neuronal cell bodies. […]
Lentiviral expression vectors were generated using HEK293T cells as described above. […] These lysates were analyzed by immunoblot to using anti-His tag monoclonal antibody (Qiagen) to detect expression of the respective hexahistidine-tagged proteins. […]
Quantitative analysis of axonal degeneration was performed as previously described (Zhai, et al., Neuron 39:217-25, 2003). […] Axons with a fragmented, non-refractile appearance were designated as “degenerated.” At each time point, at least 200 singly distinguishable axons were blindly scored from several randomly taken images of each culture. […]
Cell culture, in vitro axotomy, and quantification of axonal degeneration. […] Quantitative analysis of neurite degeneration was performed.

Data on 3 molecules can be found in US8889126B2, “Methods and compositions for treating neuropathies” (Washington University, priority 2004, dated 2014).

B1: NMNAT1: nicotinamide mononucleotide adenylyltransferase1, murine, lentivirally expressed (protein, UniProt Q9EPA7 1-285, looked up)
Nicotinamide/nicotinic acid …: MDSSKKTEVVLLACGSFNPITNMHLRLFELAKDYMHATGKYSVIKGIISPVGDAYKKKGLIPAHHRIIMAELATKNSHWVEVDTWESLQKEWVETVKVLRYHQEKLATGSCSYPQSSPALEKPGRKRKWADQKQDSSPQKPQEPKPTGVPKVKLLCGADLLESFSVPNLWKMEDITQIVANFGLICITRAGSDAQKFIYESDVLWRHQSNIHLVNEWITNDISSTKIRRALRRGQSIRYLVPDLVQEYIEKHELYNTESEGRNAGVTLAPLQRNAAEAKHNHSTL
modifications: lentivirally expressed
For the molecule B1, the “axon length and refractility in vincristine” value in test [1] is “maintained their original length and refractility”. The “overall cellular NAD levels” value in test [2] is on record as “no changes in overall cellular NAD levels were found”.

B2: dominant-negative Ufd2a mutant: Ufd2a containing a point mutation (P1140A) that inhibits wild-type Ufd2a function (protein, UniProt Q9ES00 1-1173, looked up, variant P1140A)
Ubiquitin conjugation factor …: MEELSADEIRRRRLARLAGGQTSQPTTPLTSPQRENPPGPPIAASAPGPSQSLGLNVHNMTPATSPIGAAGVAHRSQSSEGVSSLSSSPSNSLETQSQSLSRSQSMDIDGVSCEKSMSQVDVDSGIENMEVDENDRREKRSLSDKEPSSGPEVSEEQALQLVCKIFRVSWKDRDRDVIFLSSLSAQFKQNPKEVFSDFKDLIGQILMEVLMMSTQTRDENPFASLTATSQPIATAARSPDRNLMLNTGSSSGTSPMFCNMGSFSTSSLSSLGASGGASNWDSYSDHFTIETCKETDMLNYLIECFDRVGIEEKKAPKMCSQPAVSQLLSNIRSQCISHTALVLQGSLTQPRSLQQPSFLVPYMLCRNLPYGFIQELVRTTHQDEEVFKQIFIPILQGLALAAKECSLESDYFKYPLMALGELCETKFGKTHPMCNLVASLPLWLPKSLSPGSGRELQRLSYLGAFFSFSVFAEDDAKVVEKYFSGPAITLENTRVVSQSLQHYLELGRQELFKILHSILLNGETREAALSYMAALVNANMKKAQMQADDRLVSTDGFMLNLLWVLQQLSTKIKLETVDPTYIFHPRCRITLPNDETRINATMEDVNERLTELYGDQPPFSEPKFPTECFFLTLHAHHLSILPSCRRYIRRLRAIRELNRTVEDLKNNESQWKDSPLATRHREMLKRCKTQLKKLVRCKACADAGLLDESFLRRCLNFYGLLIQLMLRILDPAYPDVTLPLNSEVPKVFAALPEFYVEDVAEFLFFIVQYSPQVLYEPCTQDIVMFLVVMLCNQNYIRNPYLVAKLVEVMFMTNPSVQPRTQKFFEMIENHPLSTKLLVPSLMKFYTDVEHTGATSEFYDKFTIRYHISTIFKSLWQNIAHHGTFMEEFNSGKQFVRYINMLINDTTFLLDESLESLKRIHEVQEEMKNKEQWDQLPRDQQQARQSQLAQDERVSRSYLALATETVDMFHLLTKQVQKPFLRPELGPRLAAMLNFNLQQLCGPKCRDLKVENPEKYGFEPKKLLDQLTDIYLQLDCARFAKAIADDQRSYSKELFEEVISKMRKAGIKSTIAIEKFKLLAEKVEEIVAKNARAEIDYSDAPDEFRDPLMDTLMTDPVRLPSGTVMDRSIILRHLLNSPTDAFNRQMLTESMLEPVPELKEQIQAWMREKQSSDH
With B2, in test [3], the “axonal degeneration after transection in neurons expressing the construct” value is “neither of these methods resulted in delayed axonal degradation”.

B3: NmPRT: nicotinamide phosphoribosyltransferase, expressed in neurons (protein, UniProt Q99KQ4 1-491, looked up)
Nicotinamide …: MNAAAEAEFNILLATDSYKVTHYKQYPPNTSKVYSYFECREKKTENSKVRKVKYEETVFYGLQYILNKYLKGKVVTKEKIQEAKEVYREHFQDDVFNERGWNYILEKYDGHLPIEVKAVPEGSVIPRGNVLFTVENTDPECYWLTNWIETILVQSWYPITVATNSREQKKILAKYLLETSGNLDGLEYKLHDFGYRGVSSQETAGIGASAHLVNFKGTDTVAGIALIKKYYGTKDPVPGYSVPAAEHSTITAWGKDHEKDAFEHIVTQFSSVPVSVVSDSYDIYNACEKIWGEDLRHLIVSRSTEAPLIIRPDSGNPLDTVLKVLDILGKKFPVTENSKGYKLLPPYLRVIQGDGVDINTLQEIVEGMKQKKWSIENVSFGSGGALLQKLTRDLLNCSFKCSYVVTNGLGVNVFKDPVADPNKRSKKGRLSLHRTPAGNFVTLEEGKGDLEEYGHDLLHTVFKNGKVTKSYSFDEVRKNAQLNIEQDVAPH
Consider B3, for which the “axonal degeneration after transection in neurons expressing the construct” value in test [3] is on record as “shows axonal protection”.
